In patent US20220106398A1 (IGM BIOSCIENCES, published 2022):

T1: cynomolgus monkey His6-GITR (cynomolgus monkey)
T1 construct: His6-tagged recombinant protein; also called cGITR-His; cyno GITR-His
T1 chain: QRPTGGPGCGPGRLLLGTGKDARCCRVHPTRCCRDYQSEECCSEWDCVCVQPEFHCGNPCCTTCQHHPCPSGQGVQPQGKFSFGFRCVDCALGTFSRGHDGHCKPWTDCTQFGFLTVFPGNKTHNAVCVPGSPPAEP

T2: human His6-GITR (human, UniProt Q9Y5U5 26-162)
T2 construct: His6-tagged recombinant protein; also called hGITR-His; human GITR-His
T2 sequence: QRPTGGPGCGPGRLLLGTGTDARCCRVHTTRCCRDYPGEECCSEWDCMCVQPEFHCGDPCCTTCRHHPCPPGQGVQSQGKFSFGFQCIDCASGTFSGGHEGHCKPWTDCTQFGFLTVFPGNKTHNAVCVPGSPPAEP

T3: mouse His6-GITR (mouse, UniProt O35714 20-153)
T3 construct: His6-tagged recombinant protein; also called mGITR-His; mouse GITR-His
T3 sequence: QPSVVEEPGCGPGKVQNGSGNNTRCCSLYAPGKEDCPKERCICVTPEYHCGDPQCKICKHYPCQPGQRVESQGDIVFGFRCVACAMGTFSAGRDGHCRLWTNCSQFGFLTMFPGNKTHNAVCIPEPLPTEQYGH


Tests used:
Assay in all cases: ELISA, scFv periplasmic extract on coated His6-GITR
[1] = biological target: T1, cynomolgus monkey His6-GITR
Description: (§1) The SuperHuman-2.0 scFv Antibody Library (available from Distributed Bio, South San Francisco, Calif.) was used to perform selection with human, cynomolgus or mouse GITR proteins. Selected phage clones from overnight growth were inoculated into wells in 96 well deep well plates containing 1 mL of medium. scFv expression was induced by addition of IPTG (Teknova) to a final concentration of 1 mM. Plates were grown overnight after induction. To prepare periplasmic extracts (PPE), the plates containing the phage clones were centrifuged at 2500 rpm for 10 min, the supernatant discarded and then pellets treated with 75 μL of cold periplasmic extract buffer with appropriate concentration of protease inhibitors (Complete Mini, EDTA-free -Roche Applied Biosciences—Cat No 1836170). After shaking at room temperature for 10 min, 225 μL of cold ddH2O with added protease inhibitor (1 tablet/50 mL) was added per well and mixed by pipetting up and down. PPE extraction was completed by incubation at room temperature for an additional 1 hr. The plates were then centrifuged at 4000 rpm for 20 minutes and 200 μL of PPE supernatant was collected from each well and transferred to a new plate which was then blocked with equal volume of 4% milk (2% final) to prepare blocked PPE extracts. In the meantime, Maxisorp plates (Nunc 442404) coated with relevant antigen (human, mouse or cynomolgus monkey His6-GITR) at 50 μl/well of 1 μg/mL antigen or 2% BSA in PBS as control were prepared for ELISA analyses. Next, 50 μL of each blocked PPE extract was transferred to the pre-blocked ELISA plates coated with the relevant antigens. After incubation and washing 3× with PBS, 50 μL of anti-V5 tag antibody (tag included in the phage display constructs, Invitrogen Cat No R960-25) at 1:5000 dilution in 2% milk was added and the plates were incubated for 1 hr. […] After further washing 3× with PBST, 50 μl/well of TMB substrate was added and the plates were developed until positive controls were visible. The reaction was stopped with 50 μl/well of 2N H2SO4. Plates were read at 450 nm to determine ELISA signal from bound PPE derived scFv.

human His6-GITR = biological target: T2, human His6-GITR
Description: as §1

mouse His6-GITR = biological target: T3, mouse His6-GITR
Description: as §1

Row | Binder | cGITR-His/BKG [1] [fold over background] | hGITR-His/BKG (human His6-GITR) [fold over background] | mGITR-His/BKG (mouse His6-GITR) [fold over background]
1 | GITR-Mab-34 scFv (scFv, V domains shown, scFv in periplasmic extract, V5 tag) VH: EVQLLESGGGLVQPGGSLRLSCAASGFTFSSYWMHWVRQAPGKGLEWVSVISNSGGATYYADSVKGRFTISRDNSKNTLYLQMNSLRAEDTAVYYCAREGWGYGMDVWGQGTTVTVSS VL: DIQMTQSPSSLSASVGDRVTITCRASQDIRNYLAWYQQKPGKAPKLLIYTASTLQSGVPSRFSGSGSGTDFTLTISSLQPEDFATYYCQQTFRTPLTFGGGTKVEIK | 1.1 | 7.7 | 1.2
2 | GITR-Mab-30 scFv (scFv, V domains shown, scFv in periplasmic extract, V5 tag) VH: QVQLVQSGAEVKKPGASVKVSCKASGGTFSSYAISWVRQAPGQGLEWMGIIDPTGGATAYAQEFQGRVTMTRDTSTSTVYMELSSLRSEDTAVYYCARVGYYYGMDVWGQGTMVTVSS VL: not shown | 1 | 18.7 | 1
3 | GITR-Mab-35 scFv (scFv, V domains shown, scFv in periplasmic extract, V5 tag) VH: QVQLVQSGAEVKKPGASVKVSCKASGYTFTNYYMHWVRQAPGQGLEWMGLITPSGGRTKYAQKFQGRVTMTRDTSTSTVYMELSSLRSEDTAVYYCAREMEYSSSWYWFDPWGQGTLVTVSS VL: DIQMTQSPSSLSASVGDRVTITCQASQGISSYLNWYQQKPGKAPKLLIYAASTLQSGVPSRFSGSGSGTDFTLTISSLQPEDFATYYCQQSYSTPLTFGGGTKVEIK | 0.9 | 25.3 | 0.9
4 | GITR-Mab-40 scFv (scFv, V domains shown, scFv in periplasmic extract, V5 tag) VH: EVQLLESGGGLVQPGGSLRLSCAASGFTFRNHWMSWVRQAPGKGLEWVSGISWNSGSIDYADSVKGRFTISRDNSKNTLYLQMNSLRAEDTAVYYCAREEYATFDYWGQGTLVTVSS VL: not shown | 15.5 | 13.9 | 23.2
5 | GITR-Mab-32 scFv (scFv, V domains shown, scFv in periplasmic extract, V5 tag) VH: QVQLVQSGAEVKKPGASVKVSCKASGGTFSSYAISWVRQAPGQGLEWMGWMNPNSGDTGYAQKFQGRVTMTRDTSTSTVYMELSSLRSEDTAVYYCARGPWYFDLWGRGTLVTVSS VL: DIQMTQSPSSLSASVGDRVTITCRVSQGISNSLAWYQQKPGKAPKLLIYAASSLQSGVPSRFSGSGSGTDFTLTISSLQPEDFATYYCQQSYSTVYTFGQGTKLEIK | 4.9 | 18 | 1
6 | GITR-Mab-38 scFv (scFv, V domains shown, scFv in periplasmic extract, V5 tag) VH: QVQLVQSGAEVKKPGASVKVSCKASGGTFRNYAINWVRQAPGQGLEWMGWMNPNSGNTGYAQKFQGRVTMTRDTSTSTVYMELSSLRSEDTAVYYCAREDVDTASQAYFDYWGQGTLVTVSS VL: DIQMTQSPSSLSASVGDRVTITCRASQGISNYLAWYQQKPGKAPKLLIYSASNLQSGVPSRFSGSGSGTDFTLTISSLQPEDFATYYCQQGYSSRYTFGQGTKLEIK | – | 2.9 | –
7 | GITR-Mab-29 scFv (scFv, V domains shown, scFv in periplasmic extract, V5 tag) VH: QVQLVQSGAEVKKPGASVKVSCKASGYTFSSDYIHWVRQAPGQGLEWMGRINPSGGSTLYARRFQGRVTMTRDTSTSTVYMELSSLRSEDTAVYYCARERGAADTWYFDLWGRGTLVTVSS VL: not shown | 1.1 | 12.4 | 1
8 | GITR-Mab-45 scFv (scFv, V domains shown, scFv in periplasmic extract, V5 tag) VH: QVQLVQSGAEVKKPGASVKVSCKASGYTFTSYGISWVRQAPGQGLEWMGWMNPNSGNTGYAQKFQGRVTMTRDTSTSTVYMELSSLRSEDTAVYYCAREVYGDLDYWGQGTLVTVSS VL: DIQMTQSPSSLSASVGDRVTITCRASQGIDNWLAWYQQKPGKAPKLLIYGASTLQSGVPSRFSGSGSGTDFTLTISSLQPEDFATYYCQQSYTARFTFGPGTKVDIK | – | 1.4 | 4.5
9 | GITR-Mab-39 scFv (scFv, V domains shown, scFv in periplasmic extract, V5 tag) VH: EVQLLESGGGLVKPGGSLRLSCAASGFTFSSYWMSWVRQAPGKGLEWVSSISWSSTYIYYADSVKGRFTISRDDSKNTLYLQMNSLKTEDTAVYYCARDGQLGHWHFDLWGRGTLVTVSS VL: DIQMTQSPSSLSASVGDRVTITCRASQSISDWLAWYQQKPGKAPKLLIYEASKLATGVPSRFSGSGSGTDFTLTISSLQPEDFATYYCQQSYTTPLTFGGGTKVEIK | 4 | 4.2 | 4.4
10 | GITR-Mab-1 scFv (scFv, V domains shown, scFv in periplasmic extract, V5 tag) VH: QVQLVQSGAEVKKPGASVKVSCKASGYTFTNYHLHWVRQAPGQGLEWMGMINPNDGSTTYAQKFQGRVTMTRDTSTSTVYMELSSLRSEDTAVYYCARSTYYYDSSGYYYYYYGMDVWGQGTTVTVSS VL: EIVMTQSPATLSVSPGERATLSCRASQSVYSNYLAWYQQKPGQAPRLLIYGASTRATGIPARFSGSGSGTEFTLTISSLQSEDFAVYYCQQYHSYPLTFGGGTKVEIK | 15.8 | 13.2 | 1.1

Other lines, results leading:

Row | cGITR-His/BKG [1] [fold over background] | hGITR-His/BKG (human His6-GITR) [fold over background] | mGITR-His/BKG (mouse His6-GITR) [fold over background] | Binder
11 | 10.3 | 9.6 | 16.1 | GITR-Mab-4 scFv (scFv, V domains shown, scFv in periplasmic extract, V5 tag) VH: EVQLLESGGGLVQPGGSLRLSCAASGFTFSSYDMHWVRQAPGKGLEWVSAISSSGGSIYYADSVKGRFTISRDNSKNTLYLQMNSLRAEDTAVYYCARDSVVVPKGPNRKYYYYGMDVWGQGTKVTVSS VL: not shown
12 | 1.4 | 8.8 | 0.9 | GITR-Mab-36 scFv (scFv, V domains shown, scFv in periplasmic extract, V5 tag) VH: QVQLVQSGAEVKKPGASVKVSCKASGYTFTRNYIHWVRQAPGQGLEWMGWINPKSGGTKYAQKFQGRVTMTRDTSTSTVYMELSSLRSEDTAVYYCARESGVVATEYWYFDLWGRGTLVTVSS VL: not shown
13 | 1 | 24.6 | 1.3 | GITR-Mab-27 scFv (scFv, V domains shown, scFv in periplasmic extract, V5 tag) VH: QVQLVQSGAEVKKPGASVKVSCKASGYTFTSYDINWVRQAPGQGLEWIGWMNTNSGDTGYAQKFQGRVTMTRDTSTSTVYMELSSLRSEDTAVYYCARQAYSSSWYWYGWFDPWGQGTLVTVSS VL: DIQMTQSPSSLSASVGDRVTITCQASHDIDNYLNWYQQKPGKAPKLLIYAASNLQSGVPSRFSGSGSGTDFTLTISSLQPEDFATYYCQQANSFPLTFGPGTKVDIK
14 | 1.3 | 17.7 | 1 | GITR-Mab-33 scFv (scFv, V domains shown, scFv in periplasmic extract, V5 tag) VH: EVQLLESGGGLVKPGGSLRLSCAASGFMFSSYSMNWVRQAPGKGLEWVSYISGNSGYTNYADSVKGRFTISRDDSKNTLYLQMNSLKTEDTAVYYCARRLHGMDVWGQGTTVTVSS VL: DIQMTQSPSSLSASVGDRVTITCRASQSISTWLAWYQQKPGKAPKLLIYDASNLETGVPSRFSGSGSGTDFTLTISSLQPEDFATYYCQQAYRFPVAFGGGTKVEIK
15 | 1 | 11.5 | 1 | GITR-Mab-28 scFv (scFv, V domains shown, scFv in periplasmic extract, V5 tag) VH: QVQLVQSGAEVKKPGASVKVSCKASGYTFPNYGITWVRQAPGQGLEWMGWMNPNSGYTGYAQNFQGRVTMTRDTSTSTVYMELSSLRSEDTAVYYCARGMPGRGFDPWGQGTLVTVSS VL: EIVMTQSPATLSVSPGERATLSCRASQSVSSNYLAWYQQKPGQAPRLLIYGASTRATGIPARFSGSGSGTEFTLTISSLQSEDFAVYYCQQYHTYPPTFGQGTKLEIK
16 | 1.2 | 17.7 | 1.2 | GITR-Mab-31 scFv (scFv, V domains shown, scFv in periplasmic extract, V5 tag) VH: QVQLVQSGAEVKKPGSSVKVSCKASGGTFSSYAISWVRQAPGQGLEWMGGIIPISSATSIPQKFQGRVTITADESTSTAYMELSSLRSEDTAVYYCARSYDSRYYGMDVWGQGTTVTVSS VL: EIVMTQSPATLSVSPGERATLSCRASQTVGSRYLAWYQQKPGQAPRLLIYGASTRATGIPARFSGSGSGTEFTLTISSLQSEDFAVYYCQQYYSTPWTFGQGTRLEIK
17 | 11.7 | 13.2 | 13.7 | GITR-Mab-37 scFv (scFv, V domains shown, scFv in periplasmic extract, V5 tag) VH: QVQLVQSGAEVKKPGASVKVSCKASGYTFTSYYMHWVRQAPGQGLEWMGWINPNSGGTNYAQKFQGRVTMTRDTSTSTVYMELSSLRSEDTAVYYCASPGDYCSGGSCYSDDAFDIWGQGTMVTVSS VL: not shown
